Experiments:
[1] = biological target: T1, ErbB3-mFc (human); assay: blocking ELISA: antibody (0-50 nM) + 50 pM ErbB3-mFc, binding to coated neuregulin1b
T1 construct: Dimeric soluble ErbB3; also called hErbB3.mFc
T1 chain: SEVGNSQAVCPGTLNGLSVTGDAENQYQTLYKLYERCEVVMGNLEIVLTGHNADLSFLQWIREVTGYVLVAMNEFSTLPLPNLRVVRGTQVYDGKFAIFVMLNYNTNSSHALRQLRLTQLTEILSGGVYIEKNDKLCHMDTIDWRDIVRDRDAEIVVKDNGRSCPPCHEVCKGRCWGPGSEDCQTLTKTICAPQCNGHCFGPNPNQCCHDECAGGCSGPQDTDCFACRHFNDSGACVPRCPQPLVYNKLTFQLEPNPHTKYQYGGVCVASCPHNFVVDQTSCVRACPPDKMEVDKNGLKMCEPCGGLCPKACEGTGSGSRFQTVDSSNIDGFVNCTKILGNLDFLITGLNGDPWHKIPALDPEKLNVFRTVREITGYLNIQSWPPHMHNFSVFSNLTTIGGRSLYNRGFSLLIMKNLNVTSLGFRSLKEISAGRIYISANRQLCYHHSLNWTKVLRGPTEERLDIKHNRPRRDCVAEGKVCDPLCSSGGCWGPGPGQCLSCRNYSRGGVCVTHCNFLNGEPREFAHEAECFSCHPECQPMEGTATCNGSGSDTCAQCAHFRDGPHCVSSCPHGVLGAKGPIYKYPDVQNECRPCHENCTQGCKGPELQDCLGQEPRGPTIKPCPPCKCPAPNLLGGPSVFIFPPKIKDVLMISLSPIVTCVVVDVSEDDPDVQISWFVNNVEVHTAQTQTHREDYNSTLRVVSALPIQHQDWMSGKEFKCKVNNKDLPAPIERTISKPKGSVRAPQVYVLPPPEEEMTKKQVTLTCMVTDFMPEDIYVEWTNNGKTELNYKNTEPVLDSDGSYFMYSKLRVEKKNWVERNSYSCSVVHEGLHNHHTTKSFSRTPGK
Excerpt: To further characterize anti-hErbB3 mAbs of the present invention, their ability to block ligand binding was examined via ELISA. […] Plates were washed and non-sequestered (plate bound) ErbB3 was detected with an anti-Fc poly conjugated with horseradish peroxidase (HRP). Plates were developed with TMB (3,3′,5,5′-tetramethylbenzidine) and neutralized with sulfuric acid before reading absorbance at 450 nm on a Victor X5 plate reader. Data analysis used a sigmoidal dose-response model within Prism™ software. […] Maximal blocking for each antibody was calculated by taking the difference in absorbance from zero to 50 nM antibody on the inhibition curve, divided by the difference in absorbance from 50 pM to zero ErbB3 on the dose curve.

[2] = biological target: ErbB3 (cell surface, on MCF-7, DU145, A431 and MCF7 cells) (human, UniProt P21860 20-1342); assay: cell-based or functional assay

B1: H4H2148P (antibody, human IgG4, V domains shown)
VH: EVQLVESGGGLVHPGRSLRLSCAASGFTFDDYAMHWVRQSPGKGLEWVSGISWNSVIKHSTDSVRGRFTISRDNAKNSLYLQMNSLKPEDTAFYYCAKDEDDWNYLDYWGQGTLVTVSS
VL: DIQMTQSPSSVSASVGDRVTITCRASQDINSWLAWYQQKPGKAPKLLIYTSSNLQSGVPSRFSGSGSGTDFTLTISSLQPEDFATYYCQQSDSFPFTFGPGTKVDIKR
notes: Human IgG4 Fc (prefix H4H)
For B1, the IC50 [1] was 0.0508 nM and the “Maximal Blocking (%)” value [1] was 100%.

B2: H4H2154P (antibody, human IgG4, V domains shown)
VH: QVQLQESGPGLINPSQTLSVTCTVSGGSISSGGYYWTWIRQHPGKGLEWIGYISYSGNTNYNPSLKSRVTISVDTAKNQFSLKLSSVTAADTAVYFCARDSDVDTAMVDGIDIWGQGTMVTVSS
VL: DIQMTQSPSSVSASVGDRVTITCRASQDISSWLAWYQQKPGRAPKLLIYTASSLQSGVPSRFSGSGSGTDFTLTISSLQPEDFATYFCQQANSFPFTFGPGTKVDIKR
notes: Human IgG4 Fc (prefix H4H)
In the case of B2, the IC50 [1] is reported as 0.0901 nM and the “Maximal Blocking (%)” value [1] is reported as 91%.

B3: H4H2114P (antibody, human IgG4, V domains shown)
VH: QVQLVESGGGVVQPGRSLRLSCAASGFTFSSYGMHWVRQAPGKGLEWVAGMSYDGSSKYYEDSVKGRFTISRDNSKNTLNLQMNSLRVEDTAVYYCAKERDYVEYVDSYYGMDVWGQGTTVTVSA
VL: AIQMTQSPSSLSASVGDRVTITCRASQGIRNDLGWYQQKPGKAPKVLIYAASSLQSGVPSRFSGSGSGTVFTLTISSLQPEDFATYYCLQDYNYPLTFGGGTKVEIKR
notes: Human IgG4 Fc (prefix H4H)
With B3 the IC50 [1] was 0.163 nM and the “Maximal Blocking (%)” value [1] was 91%.

B4: H4H2153P (antibody, human IgG4, V domains shown)
VH: QVQLVQSGAEVKKPGASVKVSCKASGYTFTRYGISWVRQAPGLGLEWMGWISAYDGYTNFAQKFQGRFTMTTDTSTNTAYMELRGLRSDDTAVYYCAREEEDAAFDIWGQGTMVTVSS
VL: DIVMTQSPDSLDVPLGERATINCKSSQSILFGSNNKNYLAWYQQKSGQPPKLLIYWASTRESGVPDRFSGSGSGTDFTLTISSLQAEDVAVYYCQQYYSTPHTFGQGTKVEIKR
notes: Human IgG4 Fc (prefix H4H)
With B4 the IC50 [1] was 0.074 nM and the “Maximal Blocking (%)” value [1] was 82%.

B5: H4H2146P (antibody, human IgG4, V domains shown)
VH: QVQLVESGGGVVQPGRSLRLSCAASGFTFINYGIHWVRQGPGKGLEWVAVIWYDGSNEWYADSVKGRFTISRDNSKNTVYLEMNKLRAEDTAVYYCAREEEDYGMDVWGQGTTVTVSS
VL: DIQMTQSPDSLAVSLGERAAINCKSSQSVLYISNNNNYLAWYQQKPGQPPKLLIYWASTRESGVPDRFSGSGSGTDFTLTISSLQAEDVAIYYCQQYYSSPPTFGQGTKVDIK
notes: Human IgG4 Fc (prefix H4H)
In the case of B5, the IC50 [1] is reported as 0.177 nM and the “Maximal Blocking (%)” value [1] is reported as 83%.

B6: H4H2140P (antibody, human IgG4, V domains shown)
VH: EVQLVESGGGLVQPGGSLRLSCAASGFSVSYYDMHWVRQVTGKGLEWVSAIGPAGDTYYPGSVKGRFTISREDATNSLYLQIHSLGAGDTAVYYCAREGAIAARPDDYYGMDVWGQGTTVTVSS
VL: DIQLTQSPSFLSASVGDRVTITCWASQDISSYLAWYQQKPGKAPKLLIYAASTLQSGVPSRFSGSGSGTEFTLTISSLQPEDFATYYCQQLNSYPLTFGGGTKVEIKR
notes: Human IgG4 Fc (prefix H4H)
In the case of B6, the IC50 [1] is reported as 0.0946 nM and the “Maximal Blocking (%)” value [1] is reported as 83%.

B7: H4H2147P (antibody, human IgG4, V domains shown)
VH: QVQLVESGGGLVKPGGSLRLSCAASGFTFSDFNMGWIRQAPGKGLEWVSHISGSGNVIYYADSVKGRFAISRDNGKNSLYLQVNSLRAEDTAVYYCARDIGDSDAFDIWGQGTMVTVSS
VL: DIQLTQSPSFLSASVGDRVTITCWASQDISSYLAWYQQKPGKAPKLLIYGASTLESGVPSRFSGSGSGTEFTLTISSLQPEDVATYYCQQLNTYPLTFGGGTKVEIKR
notes: Human IgG4 Fc (prefix H4H)
For B7, the IC50 [1] was 0.0506 nM and the “Maximal Blocking (%)” value [1] was 99%.

B8: H4H2143P (antibody, human IgG4, V domains shown)
VH: EVQLVESGGGLVQPGRSLRLSCAASGFTFGDYAMHWVRQAPGKGLEWVSGINLNSGTIGYADSVKGRFTISRDNAKNSLYLQMNSLRAEDTAFYYCAKDIDGYYHYAMDVWGQGTTVTVSS
VL: DVVMTQSPSFLSASVGDRVTITCWASQGISSYLAWYQQKPGKAPKLLIYDASTLESGVPSRFSGSGSGTEFTLTISNLQPEDFATYYCQQVNSYPLTFGGGTKVEIKR
notes: Human IgG4 Fc (prefix H4H)
In the case of B8, the IC50 [1] is reported as 0.0835 nM and the “Maximal Blocking (%)” value [1] is reported as 92%.

B9: H4H2151P (antibody, human IgG4, V domains shown)
VH: QVQLVESGGGVVQPGRSLRLSCAASGFTFSNYGMHWVRQAPGKGLEWVARIWYDGSNKYYADSVKGRFTISRDSSKNTLYLQMNSLRAEDTAVYYCAREGEQNLDYYPLDVWGQGTTVTVSS
VL: DIVMTQSPSSLSASVGDRVTITCRASQDIRNDLGWYQQKPGKAPKLLIYAASSLQTGVPSRFSGSVSGTDFTLTISSLQPEDFATYYCLQDYTYPLTFGGGTKVEIK
notes: Human IgG4 Fc (prefix H4H)
In the case of B9, the IC50 [1] is reported as 0.0751 nM and the “Maximal Blocking (%)” value [1] is reported as 85%.

B10: H2M1824N (antibody, mouse IgG2, V domains shown)
VH: EVQLVESGGGVVRPGGSLRLSCAASGFTFDDYGMSWVRQAPGKGLECVSGINWNGGSTDYADSVKGRFTISRDNAKNSLYLQMNSLRAEDTASYYCARDGGDWDYFDLWGRGTLVTVSS
VL: EIVMTQSPATLSVSPGERATLSCRASQSVSSNLAWYQQKPGQAPRLLIYGASTRATGIPARFSGSGSGTEFTLTISSLQSEDFAVYFCQEYNDWPLTFGGGTKVEIK
In the case of B10, the “Percent inhibition of Akt phosphorylation, 0.01 µg/ml ErbB3 antibody, DU145 cells + 0.5 nM NRG1” value [2] is reported as 25%, the “Percent inhibition of Akt phosphorylation, 0.1 µg/ml ErbB3 antibody, DU145 cells + 0.5 nM NRG1” value [2] is reported as 63% and the “Percent inhibition of Akt phosphorylation, 0.5 µg/ml ErbB3 antibody, DU145 cells + 0.5 nM NRG1” value [2] is reported as 74%.

B11: H2M1827N (antibody, mouse IgG2, V domains shown)
VH: EVQLVESGGGVVRPGGSLRLSCAASGFTFDDYGMSWVRQAPGKGLECVSGISWNGGNTDYADSVKGRFTISRDNAKNSLYLQMNSLRAEDTALYHCARDGGDWDYFDLWGRGTLVTVSS
VL: EILMTQSPATLSVSPGERATLSCRASQSVSSNLAWYQQKPGQAPRLLIYGASTRATGIPARFSGSGSGTEFTLTISSLQSEDFAIYYCQEYNDWPLTFGGGTKVEIK
In the case of B11, the “Percent inhibition of Akt phosphorylation, 0.01 µg/ml ErbB3 antibody, DU145 cells + 0.5 nM NRG1” value [2] is reported as 16%, the “Percent inhibition of Akt phosphorylation, 0.1 µg/ml ErbB3 antibody, DU145 cells + 0.5 nM NRG1” value [2] is reported as 73% and the “Percent inhibition of Akt phosphorylation, 0.5 µg/ml ErbB3 antibody, DU145 cells + 0.5 nM NRG1” value [2] is reported as 75%.

B12: H2M1821N (antibody, mouse IgG2, V domains shown)
VH: EVQLVESGGGLVQPGRSLRLSCAASGFTFDDYAMHWVRQAPGKGLEWVSSISWNSGSIGYADSVKGRFTISRDNAKNSLYLQMNSLKPEDTALYYCTKDTDYGDYLDAFDIWGQGTMVAVAS
VL: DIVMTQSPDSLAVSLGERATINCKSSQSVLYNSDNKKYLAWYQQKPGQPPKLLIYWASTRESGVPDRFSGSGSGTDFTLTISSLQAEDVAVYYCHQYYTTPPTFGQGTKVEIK
In the case of B12, the “Percent inhibition of Akt phosphorylation, 0.01 µg/ml ErbB3 antibody, DU145 cells + 0.5 nM NRG1” value [2] is reported as 11%, the “Percent inhibition of Akt phosphorylation, 0.1 µg/ml ErbB3 antibody, DU145 cells + 0.5 nM NRG1” value [2] is reported as 68% and the “Percent inhibition of Akt phosphorylation, 0.5 µg/ml ErbB3 antibody, DU145 cells + 0.5 nM NRG1” value [2] is reported as 73%.

B13: H1M1819N (antibody, V domains shown)
VH: EVQLVESGGGVVRPGGSLRLSCAASGFTFDDYAMHWVRQAPGKGLEWVAGISWNSGSIDYADSVKGRFTISRDNAKNSLYLQMNSLRAGDTALYYCAKDILDLDYYGLDVWGQGTTVTVSS
VL: DIQMTQSPSSLSASVGDRVTITCRASQDISSYLAWYQQKPGKVPNLLIYDASSLQSGVPSRFSGSGSGTDFTLTLSSLQPEDFASYYCQNYNSAPYTFGQGTKLEIK
B13 was tested, and the “Percent inhibition of Akt phosphorylation, 0.01 µg/ml ErbB3 antibody, DU145 cells + 0.5 nM NRG1” value [2] was 29%, the “Percent inhibition of Akt phosphorylation, 0.1 µg/ml ErbB3 antibody, DU145 cells + 0.5 nM NRG1” value [2] was 72% and the “Percent inhibition of Akt phosphorylation, 0.5 µg/ml ErbB3 antibody, DU145 cells + 0.5 nM NRG1” value [2] was 75%.

B14: H4H2132P (antibody, human IgG4, V domains shown)
VH: EVQLVESGGGVVRPGGSLRLSCAASGFTFDDYGMSWVRQFPGKGLEWVSSIDGNGGNTGYSDSVKGRFTISRDNAKNSLHLQMNSLRAEDTALYHCARDPDYDSVWGNYRPFDYWGQGTLVTVSS
VL: DIVMTQSPDSLAVSLGERATINCKSSQSVLSSSNDNNYLAWFQQKPGQPPNLLIYWASTRDSGVPDRFSASGSGTDFTLAISSLQAEDVAVYYCHQYYSSPPTFGQGTKVEIKR
notes: Human IgG4 Fc (prefix H4H)
B14 was tested, and the IC50 [1] was 0.0957 nM and the “Maximal Blocking (%)” value [1] was 94%.

B15: H4H2290P (antibody, human IgG4, V domains shown)
VH: EVQLLESGGGLVQPGGSLRLSCVASGFTFSSFAMSWVRQAPGKGLEWVSVISGSGGSTNHADSVRGRFTISRDNSLNTVYLQMHSLRAEDTALYYCVKAETSSSYFYYGMDVWGQGTTVTVSS
VL: DIQLTQSPSFLSASVGDRVTITCWASQDISSYLAWYQQKPGKVPNLLIYGASSLQPGVPSRFSGSGSGTEFTLTISSLQPEDFATYYCQQLNNYPTFGGGTKLEIKR
notes: Human IgG4 Fc (prefix H4H)
B15 was tested, and the IC50 [1] was 0.0664 nM and the “Maximal Blocking (%)” value [1] was 99%.

B16: H4H2138P (antibody, human IgG4, V domains shown)
VH: QVQLQESGPGLVKPSQTLSLTCTVSGGSINSGGYYWSWIRQHPGKGLEWIGYISYSGNTNYNPSLKSRVTISVDTSKNQFSLTLTSVTAADTAVYYCARDSDVDTGLVDGFDVWGQGTMVTVSS
VL: DIVMTQSPSSVSASVGDRVTITCRASQGVSSWLAWYQQKPGKAPKLLIYTTSSLQSGVPSRFSGSGSGTDFTLTISSLQPEDFATYYCQQSNSFPFTFGPGTKVEIK
notes: Human IgG4 Fc (prefix H4H)
In the case of B16, the IC50 [1] is reported as 0.106 nM and the “Maximal Blocking (%)” value [1] is reported as 96%.
